Experiment in all cases: co-IP
Assay [1] addresses human GABAA receptor β2 subunit, variant Q209F210delinsH (human) (UniProt P47870).
The target in assay [2] is human GABAA receptor β2 subunit, epilepsy-associated variant I246T (human) (UniProt P47870).
For assay [3], the target named is human GABAA receptor β2 subunit, epilepsy-associated variant R240T (human) (UniProt P47870).
The target of assay [4] is human GABAA receptor β2 subunit, epilepsy-associated variant I299S (human) (UniProt P47870).

For “human GABAA receptor α1 subunit (GABRA1)”, the percent reduction of the ratio of α1 to β2 after co-IP, against WT is 75% in assay [1], 30% in assay [2], 80% in assay [3] and 30% in assay [4].
